Reference: article PMC5499675 (2017)

T1: IGRP peptide on HLA-DRA*01:01 / HLA-DRB1*04:01 (human)
T1 peptide: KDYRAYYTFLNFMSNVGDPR

T2: influenza hemagglutinin peptide on HLA-DRA*01:01 / HLA-DRB1*04:01 (human)
T2 peptide: PRYVKQNTLKLAT

B1: Expanded TCR clonotype from subject T1D4 (Sequences 3 and 4) (TCR)
alpha TRAV2 TRAJ15 CDR3: CAVEDLNQAGTALIF
beta TRBV5-1 TRBJ2-1 CDR3: CASSLALGQGNQQFF
B2: Expanded TCR clonotype from subject T1D2 (Sequences 1 and 2) (TCR)
alpha TRAV29 TRAJ40 CDR3: CAATRTSGTYKYIF
beta TRBV6-6 TRBJ2-3 CDR3: CASSPWGAGGTDTQYF

Assays:
[1] = target: T1, IGRP peptide on HLA-DRA*01:01 / …; experiment: proliferation
[2] = target: T3, IGRP peptide on HLA-DRA*01:01 / HLA-DRB1*04:01 (human); experiment: proliferation; remark: listed apart in the source
[3] = target: T2, influenza hemagglutinin peptide on …; experiment: multimer staining
[4] = target: IGRP peptide on HLA-DRA*01:01 / HLA-DRB1*04:01 (human); experiment: multimer staining
[5] = target: T1, IGRP peptide on HLA-DRA*01:01 / …; experiment: multimer staining
[6] = target: T3, IGRP peptide on HLA-DRA*01:01 / …; experiment: multimer staining; remark: listed apart in the source

| Binder | binding result [1] | binding result [2] | binding result [3] | binding result [4] | binding result [5] | binding result [6] |
| --- | --- | --- | --- | --- | --- | --- |
| B1 | no recognition | no recognition | no recognition | recognises |  |  |
| B2 |  |  | no recognition | no recognition | no recognition | recognises |
